Columns and labels:
[1] = target: GFP-fused CtMrs2 106-539 E374A;E378A (Chaetomium thermophilum); assay: SEC; purified GFP-fused CtMrs2 forms used for the limited proteolysis assay; final SEC buffer as buffer A but pH 8.0, DDM
[2] = target: CtMrs2 106-539 lacking GFP (TEV-cleaved), in MSP1D1/POPC nanodiscs, closed-state sample with Mg2+ (Chaetomium thermophilum); assay: cryo-EM structure; closed state: MSP1D1/POPC nanodiscs, 50 mM HEPES-Na pH 7.5, 100 mM NaCl, 2 mM MgCl2 plus additional 10 mM MgCl2; C1 and C5 maps
[3] = target: CtMrs2 106-539 in MSP1D1/POPC nanodiscs, open-state sample prepared with EDTA (Chaetomium thermophilum); assay: cryo-EM structure; open state: MSP1D1/POPC nanodiscs, 50 mM HEPES pH 7.5, 100 mM NaCl, 2 mM EDTA, 1 mM fluorinated Fos-choline-8; C1 and C5 maps
[4] = target: GFP-fused CtMrs2 (His10-GFP-G4S-TEV-CtMrs2 106-539), wild type (Chaetomium thermophilum); assay: native gel or EMSA; Coomassie-stained blue native PAGE of purified detergent-solubilised GFP-fused CtMrs2
[5] = target: GFP-fused CtMrs2 (His10-GFP-G4S-TEV-CtMrs2 106-539), wild type (Chaetomium thermophilum); assay: SEC; purified GFP-fused CtMrs2 forms used for the limited proteolysis assay; final SEC buffer as buffer A but pH 8.0, DDM
[6] = target: GFP-fused CtMrs2 (His10-GFP-G4S-TEV-CtMrs2 106-539), wild type (Chaetomium thermophilum); assay: SEC; detergent-solubilised GFP-fused CtMrs2 on Superose 6; buffer A (50 mM HEPES-NaOH pH 7.5, 150 mM NaCl, 10% glycerol) with 0.05% DDM and 2 mM MgCl2
[7] = target: GFP-fused CtMrs2 106-539 E374R (Chaetomium thermophilum); assay: SEC; purified GFP-fused CtMrs2 forms used for the limited proteolysis assay; final SEC buffer as buffer A but pH 8.0, DDM
[8] = target: GFP-fused CtMrs2 106-539 S328A;T329A (Chaetomium thermophilum); assay: as above
[9] = target: GFP-fused CtMrs2 106-539 S396A;S397A (Chaetomium thermophilum); assay: as above

“GFP-fused CtMrs2 106-539 E374A;E378A (natural protein)” showed a stoichiometry N [1] of 5.

For “CtMrs2 106-539 lacking GFP (TEV-cleaved), in MSP1D1/POPC nanodiscs, closed-state sample with Mg2+ (natural protein)”, the stoichiometry N [2] was 5.

For “CtMrs2 106-539 in MSP1D1/POPC nanodiscs, open-state sample prepared with EDTA (natural protein)”, the stoichiometry N [3] was 5.

Substance “GFP-fused CtMrs2 (His10-GFP-G4S-TEV-CtMrs2 106-539), wild type (natural protein)” has a stoichiometry N [4] of 5, a stoichiometry N [5] of 5 and a stoichiometry N [6] of 5.

Substance “GFP-fused CtMrs2 106-539 E374R (natural protein)” has a stoichiometry N [7] of 5.

“GFP-fused CtMrs2 106-539 S328A;T329A (natural protein)” showed a stoichiometry N [8] of 5.

“GFP-fused CtMrs2 106-539 S396A;S397A (natural protein)” was tested, and the stoichiometry N [9] was 5.
